In patent US20260070975A1:

Target: c-Kit expressed on the cell surface of M-07e cells (human) (UniProt P10721)
Assay: flow cytometry on M-07e cells

Chain of c-Kit expressed on the cell surface of M-07e cells (human) (P10721 26-976): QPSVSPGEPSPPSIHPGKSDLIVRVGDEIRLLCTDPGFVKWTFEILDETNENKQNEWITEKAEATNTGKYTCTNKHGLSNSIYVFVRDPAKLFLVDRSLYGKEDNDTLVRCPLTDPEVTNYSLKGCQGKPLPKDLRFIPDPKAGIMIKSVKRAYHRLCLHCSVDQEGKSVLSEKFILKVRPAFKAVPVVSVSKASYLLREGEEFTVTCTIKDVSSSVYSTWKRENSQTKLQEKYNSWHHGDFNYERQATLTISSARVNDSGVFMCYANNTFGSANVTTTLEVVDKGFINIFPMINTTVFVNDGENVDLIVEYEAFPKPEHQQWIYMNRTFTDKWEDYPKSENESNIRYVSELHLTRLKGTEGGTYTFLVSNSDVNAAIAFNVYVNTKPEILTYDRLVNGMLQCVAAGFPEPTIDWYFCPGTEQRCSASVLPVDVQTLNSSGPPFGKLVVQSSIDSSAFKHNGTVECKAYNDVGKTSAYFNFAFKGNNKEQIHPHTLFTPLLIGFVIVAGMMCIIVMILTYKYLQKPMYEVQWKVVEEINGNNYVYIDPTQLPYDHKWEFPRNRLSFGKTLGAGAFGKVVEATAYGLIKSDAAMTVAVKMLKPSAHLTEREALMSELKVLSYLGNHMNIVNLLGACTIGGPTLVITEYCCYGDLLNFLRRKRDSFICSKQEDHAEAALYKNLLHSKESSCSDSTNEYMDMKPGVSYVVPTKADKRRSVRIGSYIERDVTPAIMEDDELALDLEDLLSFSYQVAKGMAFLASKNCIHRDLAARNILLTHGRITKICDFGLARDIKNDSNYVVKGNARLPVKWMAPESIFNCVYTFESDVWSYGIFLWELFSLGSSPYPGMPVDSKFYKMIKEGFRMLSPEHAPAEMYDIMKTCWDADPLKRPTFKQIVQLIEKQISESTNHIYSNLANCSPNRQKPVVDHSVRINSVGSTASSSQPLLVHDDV

Measuring Fluorescent Intensity (MFI): 85 MFI | Percent Positive for c-Kit on M-07e cells: 2.3%
Substance: hIgG1 control (antibody)
